Substrate: Cc1cc2nc3c(=O)[nH]c(=O)nc-3n(C[C@H](O)[C@H](O)[C@H](O)COP(=O)(O)OP(=O)(O)OC[C@H]3O[C@@H](n4cnc5c(N)ncnc54)[C@H](O)[C@@H]3O)c2cc1C
Experiment: purified protein
Format: biochemical, Homo sapiens
Conditions: co-substrate NADPH 400 µM; enzyme 20 µM

Protein | Km [µM] | kcat [s⁻¹]
human BLVRB (Homo sapiens) (protein, pET21) AVKKIAIFGATGQTGLTTLAQAVQAGYEVTVLVRDSSRLPSEGPRPAHVVVGDVLQAADVDKTVAGQDAVIVLLGTRNDLSPTTVMSEGARNIVAAMKAHGVDKVVACTSAFLLWDPTKVPPRLQAVTDDHIRMHKVLRESGLKYVAVMPPHIGDQPLTGAYTVTLDGRGPSRVISKHDLGHFMLRCLTTDEYDGHSTYPSHQYQ | 242 ± 36 | 0.16 ± 0.03
human BLVRB (Homo sapiens; T164S) (protein, pET21) AVKKIAIFGATGQTGLTTLAQAVQAGYEVTVLVRDSSRLPSEGPRPAHVVVGDVLQAADVDKTVAGQDAVIVLLGTRNDLSPTTVMSEGARNIVAAMKAHGVDKVVACTSAFLLWDPTKVPPRLQAVTDDHIRMHKVLRESGLKYVAVMPPHIGDQPLTGAYSVTLDGRGPSRVISKHDLGHFMLRCLTTDEYDGHSTYPSHQYQ | 171 ± 33 | 0.1 ± 0.03

From paper PMC11675717, “Evolutionary Adaptations in Biliverdin Reductase B: Insights into Coenzyme Dynamics and Catalytic Efficiency” (International Journal of Molecular Sciences, 2024)
